Experimental data from patent US20210347873A1 (SHANGHAI PHARMAEXPLORER, published 2021).
Where two headings read alike, the source gives them in different places.

How the values were obtained:
biotinylated hBLyS-ECD [1] = target: T1, biotinylated hBLyS-ECD (human, UniProt Q9Y275 134-285, biotinylated with Biotin-X-X-NHS (molar ratio 7:1); sites not stated); assay: ELISA on captured biotinylated hBLyS-ECD; antibody 13.3 nM
T1 construct: also called biotinylated immunogen; biotinylated hBLvS-ECD

biotinylated hBLyS-ECD [2] = target: T1, biotinylated hBLyS-ECD; assay: ELISA on captured biotinylated hBLyS-ECD; antibody 2.67 nM
biotinylated hBLyS-ECD [3] = target: T1, biotinylated hBLyS-ECD; assay: ELISA on captured biotinylated hBLyS-ECD; antibody 66.7 nM
biotinylated hBLyS-ECD [4] = target: T1, biotinylated hBLyS-ECD; assay: ELISA on captured biotinylated hBLyS-ECD; antibody 0.107 nM
biotinylated hBLyS-ECD [5] = target: T1, biotinylated hBLyS-ECD; assay: ELISA on captured biotinylated hBLyS-ECD; antibody 0.534 nM
biotinylated hBLyS-ECD [6] = target: T1, biotinylated hBLyS-ECD; assay: ELISA on captured biotinylated hBLyS-ECD; antibody 0.0213 nM
biotinylated hBLyS-ECD [7] = target: T1, biotinylated hBLyS-ECD; assay: ELISA on captured biotinylated hBLyS-ECD; antibody 0.00427 nM
biotinylated hBLyS-ECD [8] = target: T1, biotinylated hBLyS-ECD; assay: ELISA on captured biotinylated hBLyS-ECD; antibody 0 nM (background)
[9] = target: T2, extracellular domain of human BLyS protein (hBLyS-ECD), His-tagged, Ala134-Leu285 (human, UniProt Q9Y275 134-285); assay: SPR (Biacore), antibody captured by anti-human Fc, hBLyS-ECD as analyte
T2 construct: Expressed in HEK293 cells and purified on a Ni column; also called immunogen
Method: Affinity constants were determined using a Biacore X100 instrument (purchased from GE Healthcare). Detailed operations and methods referred to the instrument manuals and detailed methods provided by manufacturers, specifically: determining affinity constant using a CM5 chip (Sensor Chip CM5, purchased from GE Healthcare). […] Then 1 M ethanolamine was injected in chip to block the remaining activation sites. After the antibody to be tested (i.e., the human BLyS antibody prepared by Embodiment 2) was captured by chip, 7 different gradient of immunogen dilutions (i.e., hBLyS-ECD) prepared by Embodiment 1 were injected and the binding and dissociation of antigen with antibody was detected by a Biacore instrument. The dissociation constant and binding constant were then fitted by Biacore X100 Evaluation Software 2.0, while the affinity constant was the ratio of dissociation constant to binding constant.
The binding and dissociation between antibody and antigen was detected by Biacore.

biotinylated hBLyS-ECD [10] = target: T1, biotinylated hBLyS-ECD; assay: BAFF R-coated ELISA, biotinylated hBLyS-ECD bound in presence of antibody 0 nM
biotinylated hBLyS-ECD [11] = target: T1, biotinylated hBLyS-ECD; assay: BAFF R-coated ELISA, biotinylated hBLyS-ECD bound in presence of antibody 4 nM
biotinylated hBLyS-ECD [12] = target: T1, biotinylated hBLyS-ECD; assay: BAFF R-coated ELISA, biotinylated hBLyS-ECD bound in presence of antibody 20 nM
biotinylated hBLyS-ECD [13] = target: T1, biotinylated hBLyS-ECD; assay: BAFF R-coated ELISA, biotinylated hBLyS-ECD bound in presence of antibody 0.8 nM
biotinylated hBLyS-ECD [14] = target: T1, biotinylated hBLyS-ECD; assay: BAFF R-coated ELISA, biotinylated hBLyS-ECD bound in presence of antibody 100 nM
biotinylated hBLyS-ECD [15] = target: T1, biotinylated hBLyS-ECD; assay: BAFF R-coated ELISA, biotinylated hBLyS-ECD bound in presence of antibody 0.16 nM
biotinylated hBLyS-ECD [16] = target: T1, biotinylated hBLyS-ECD; assay: BAFF R-coated ELISA, biotinylated hBLyS-ECD bound in presence of antibody 0.032 nM
biotinylated hBLyS-ECD [17] = target: T1, biotinylated hBLyS-ECD; assay: BAFF R-coated ELISA, biotinylated hBLyS-ECD bound in presence of antibody 0.0064 nM
[18] = target: T2, extracellular domain of human BLyS …; assay: cell-based or functional assay
[19] = target: T2, extracellular domain of human BLyS …; assay: SPR (Biacore), antibody captured by anti-human Fc, hBLyS-ECD as analyte; remark: listed apart in the source

OD450 nm (biotinylated hBLyS-ECD [1]) [OD450 nm] | OD450 nm (biotinylated hBLyS-ECD [2]) [OD450 nm] | OD450 nm (biotinylated hBLyS-ECD [3]) [OD450 nm] | OD450 nm (biotinylated hBLyS-ECD [4]) [OD450 nm] | OD450 nm (biotinylated hBLyS-ECD [5]) [OD450 nm] | OD450 nm (biotinylated hBLyS-ECD [6]) [OD450 nm] | OD450 nm (biotinylated hBLyS-ECD [7]) [OD450 nm] | OD450 nm (biotinylated hBLyS-ECD [8]) [OD450 nm] | Kd [9] [nM] | koff [9] [s⁻¹] | kon [9] [M⁻¹ s⁻¹] | OD450 nm (biotinylated hBLyS-ECD [10]) [OD450 nm] | OD450 nm (biotinylated hBLyS-ECD [11]) [OD450 nm] | OD450 nm (biotinylated hBLyS-ECD [12]) [OD450 nm] | OD450 nm (biotinylated hBLyS-ECD [13]) [OD450 nm] | OD450 nm (biotinylated hBLyS-ECD [14]) [OD450 nm] | OD450 nm (biotinylated hBLyS-ECD [15]) [OD450 nm] | OD450 nm (biotinylated hBLyS-ECD [16]) [OD450 nm] | OD450 nm (biotinylated hBLyS-ECD [17]) [OD450 nm] | Proportion of B lymphocytes in splenocytes (%), in vivo in mice [18] [%] | Binder | also measured
2.27 | 2.24 | 2.37 | 1.02 | 1.88 | 0.372 | 0.179 | 0.198 | 1.88 | 0.000216 | 115000 | 1.94 | 1.13 | 0.748 | 1.56 | 0.506 | 1.81 | 1.98 | 1.96 |  | h97A3C2H4-9 (antibody, V domains shown, Humanized antibody; VH3-7/JH6 CDR-grafted with A93T, G44R; also called humanized BLyS antibody h97A3C2H4 variant 9 (VH.1b / Vk.1d)) VH: EVQLVESGGGLVQPGGSLRLSCAASGFTFSTYTMSWVRQAPGKRLEWVAYISYGGGSTSYPDTVKGRFTISRDNAKNSLYLQMNSLRAEDTAVYYCTRHVTVVENSMDYWGQGTTVTVSS VL: DILLTQSPDFQSVTPKEKVTITCRASQSIGTSIHWYQQKTDQSPKLLIKYVSESFSGTPSRFSGSGSGTDFTLTINSLEAEDAATYYCQQTHSWPWTFGGGTKVEIK | 
 |  |  |  |  |  |  |  |  |  |  |  |  |  |  |  |  |  |  | 25.6 | 2-1G11 (antibody, V domains shown) VH: EVQLVESRGGVVQPGRSLRLSCAASGFTFSSYGMHWVRQAPGKGLEWVAVISYDGSNKYYADSVKGRFTISRDNSKNTLYLQMNSLRAEDAAVYYCARDRVDILTGYSIYGMDVWGQGTTVTVSS VL: EIVMTQSPATLSLSPGERATLSCRASQSVSSYLAWYQQKPGQAPRLLIYDASKRATGIPARFSGSGSGTDFTLTISSLEPEDFAVYYCQQRSNWPLTFGGGTKVEIK | 
2.2 | 2.18 | 2.3 | 1.35 | 1.88 | 0.499 | 0.195 | 0.129 | 4.33 | 0.000942 | 218000 | 2.05 | 1.11 | 0.721 | 1.54 | 0.45 | 1.78 | 1.87 | 1.98 |  | h8E7D9C7F5-1 (antibody, V domains shown, Humanized antibody; also called humanized BLyS antibody h8E7D9C7F5 variant 1 (VH.1 / Vk.1)) VH: EVQLVQSGAEVKKPGASVKVSCKASGYTFTSYGISWVRQAPGQGLEWMGEIYPRSGNTYYNEKFKGRVTMTTDTSTSTAYMELRSLRSDDTAVYYCARSGPITTLVATDYGMDYWGQGTTVTVSS VL: DIVMTQSPDSLAVSLGERATINCRASKSVSTSSYSYMHWYQQKPGQPPKLLIKFASNLESGVPDRFSGSGSGTDFTLTISSLQAEDVAVYYCQHSREFPYTFGGGTKVEIK | 
 |  |  |  |  |  |  |  |  |  |  |  |  |  |  |  |  |  |  | 30.5 | c35E6F7C3 (antibody, V domains shown) VH: EVQLQQSGAELVKPGASVKLSCTAAGFNIQDTYIHWVKQRPEQGLEWIGRIDPANANTVYDPKFQGKATITADTSSNTAYLQVSSLTSEDTAVYYCASPVITAGFAYWGQGTLVTVSA VL: QIVLTQSPAIMSASPGEKVTMTCGASSSVNYVHWYQQKSGTSPKRWIYDTSKLASGVPARFSGSGSGTSYSLTISSMEAEDAATYYCQQWTRSPLTFGAGTKVELK | Kd [19]: 1.45 nM; koff [19]: 0.000277 s⁻¹; kon [19]: 190000 M⁻¹ s⁻¹
